Experimental data as given in patent US20250250357A1 (NANJING ZAIMING PHARMACEUTICAL, published 2025).
Read-outs that look alike come from different tables or passages of the source.

T1: monkey MSLN on HEK293T-monkey MSLN recombinant cells (monkey)
T1 construct: Full-length precursor as transfected; processing on the cell is not described; also called HEK293-monkey MSLN
T1 chain: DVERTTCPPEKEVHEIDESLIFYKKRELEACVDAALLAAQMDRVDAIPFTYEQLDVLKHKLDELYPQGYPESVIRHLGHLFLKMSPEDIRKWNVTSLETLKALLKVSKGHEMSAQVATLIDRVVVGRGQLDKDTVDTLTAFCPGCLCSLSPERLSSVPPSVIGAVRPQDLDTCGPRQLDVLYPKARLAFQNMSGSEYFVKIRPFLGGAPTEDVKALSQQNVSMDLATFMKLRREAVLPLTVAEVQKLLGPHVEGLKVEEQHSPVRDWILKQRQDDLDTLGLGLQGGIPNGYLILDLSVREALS


Tests used:
[1] = molecular target: T2, human MSLN on OVCAR3 tumor cells (human, UniProt Q13421 296-598); assay: FACS, OVCAR3 cells
T2 construct: whole, on cells; also called human MSLN protein
T2 sequence (Q13421 other isoform, or with tags, fused parts or gaps): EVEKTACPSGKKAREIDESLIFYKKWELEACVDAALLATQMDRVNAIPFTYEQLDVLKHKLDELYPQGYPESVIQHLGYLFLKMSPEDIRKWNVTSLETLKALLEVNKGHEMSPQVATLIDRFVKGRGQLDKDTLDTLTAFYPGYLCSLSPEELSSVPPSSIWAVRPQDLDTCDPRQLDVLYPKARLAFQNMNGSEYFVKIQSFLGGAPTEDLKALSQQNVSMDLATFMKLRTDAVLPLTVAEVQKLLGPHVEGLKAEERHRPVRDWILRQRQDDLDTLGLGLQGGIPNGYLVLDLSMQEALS

[2] = molecular target: T3, human MSLN-hFc recombinant protein (human, UniProt Q13421 296-580); assay: SPR (Biacore 8K), MSLN-hFc captured, antibody injected
T3 construct: Captured by an anti-human IgG antibody on the chip; also called human MSLN protein; Acro MSN-H5253
T3 sequence (Q13421 other isoform, or with tags, fused parts or gaps): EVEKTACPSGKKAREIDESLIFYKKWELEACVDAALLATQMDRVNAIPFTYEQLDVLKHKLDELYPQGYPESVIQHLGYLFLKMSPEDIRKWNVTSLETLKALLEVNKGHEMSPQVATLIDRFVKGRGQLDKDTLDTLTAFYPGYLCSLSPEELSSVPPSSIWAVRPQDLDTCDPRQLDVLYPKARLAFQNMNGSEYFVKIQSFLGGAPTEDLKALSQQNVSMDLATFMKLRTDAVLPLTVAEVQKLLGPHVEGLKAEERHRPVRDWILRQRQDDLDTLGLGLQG

[3] = molecular target: T4, human MSLN-R3 on HEK293T-hMSLN-R3 recombinant cells (human, UniProt Q13421 487-606); assay: FACS, HEK293T-hMSLN-R3 cells
T4 construct: the C-terminal limit is uncertain; also called human MSLN-R3 membrane protein
T4 sequence (Q13421 495-614): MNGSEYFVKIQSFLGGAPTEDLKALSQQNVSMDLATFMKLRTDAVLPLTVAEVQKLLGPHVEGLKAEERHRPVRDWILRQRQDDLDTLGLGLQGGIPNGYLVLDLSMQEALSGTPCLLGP

[4] = molecular target: T1, monkey MSLN on HEK293T-monkey MSLN …; assay: FACS, HEK293T-monkey MSLN cells
[5] = molecular target: T1, monkey MSLN on HEK293T-monkey MSLN …; assay: FACS, HEK293T-monkey MSLN cells
[6] = molecular target: T2, human MSLN on OVCAR3 tumor cells; assay: FACS, OVCAR3 cells; remark: listed apart in the source
[7] = molecular target: T4, human MSLN-R3 on HEK293T-hMSLN-R3 …; assay: FACS, HEK293T-hMSLN-R3 cells; remark: listed apart in the source

Row | Binder | EC50 [1] [nM] | Maximum_MFI [1] [MFI] | Kd [2] [nM] | koff [2] [s⁻¹] | kon [2] [M⁻¹ s⁻¹] | EC50 [3] [nM] | Maximum_MFI [3] [MFI] | EC50 [4] [nM] | Maximum_MFI [4] [MFI] | EC50 [5] [nM] | Maximum_MFI [5] [MFI] | EC50 [6] [nM] | Maximum_MFI [6] [MFI] | EC50 [7] [nM] | Maximum_MFI [7] [MFI]
1 | F7.33.24-H2 (scFv, not shown: small tags and cut ends, also called S009-F7.33.24 humanized antibody VH1 + VL2) scFv: EVQLVQSGAEVKKPGASVKVSCKASGYTFTSYWMHWVRQAPGQRLEWMGNVNPSNGGSNYNEKFKNRVTITVDKSASTAYMELSSLRSEDTAVYYCAPHYIGSRPGFAYWGQGTLVTVSSGGGGSGGGGSGGGGSDIVMTQTPLSLSVTPGQPASISCKASQNVGTNIAWYLQKPGQSPQALIYSASYRYSGVPDRFSGSGSGTDFTLKISRVEAEDVGVYYCQQYNSYPLTFGGGTKVEIK | 2.07 | 2190 | 1.83 | 0.000466 | 254000 | 1.21 | 1520 | 5.11 | 8170 | – | – | – | – | – | –
2 | F7.33.24-H5 (scFv, not shown: small tags and cut ends, also called S009-F7.33.24 humanized antibody VH1a + VL2) scFv: EVQLVQSGAEVKKPGASVKVSCKASGYTFTSYWMHWVRQAPGQRLEWMGNVNPSSGGSNYNEKFKNRVTITVDKSASTAYMELSSLRSEDTAVYYCAPHYIGSRPGFAYWGQGTLVTVSSGGGGSGGGGSGGGGSDIVMTQTPLSLSVTPGQPASISCKASQNVGTNIAWYLQKPGQSPQALIYSASYRYSGVPDRFSGSGSGTDFTLKISRVEAEDVGVYYCQQYNSYPLTFGGGTKVEIK | 2.78 | 2420 | 1.06 | 0.000435 | 409000 | 1.35 | 1470 | 4.98 | 8430 | – | – | – | – | – | –
3 | F7.33.24-H3 (scFv, not shown: small tags and cut ends, also called S009-F7.33.24 humanized antibody VH1 + VL3) scFv: EVQLVQSGAEVKKPGASVKVSCKASGYTFTSYWMHWVRQAPGQRLEWMGNVNPSNGGSNYNEKFKNRVTITVDKSASTAYMELSSLRSEDTAVYYCAPHYIGSRPGFAYWGQGTLVTVSSGGGGSGGGGSGGGGSDIVMTQTPLSLSVTPGQPASISCKASQNVGTNIAWYQQKPGQSPQALIYSASYRYSGVPDRFSGSGSGTDFTLKISRVEAEDVGVYYCQQYNSYPLTFGGGTKVEIK | 2.06 | 2370 | – | – | – | 2.89 | 1970 | 5.33 | 8310 | – | – | – | – | – | –
4 | F7.33.24-H4 (scFv, not shown: small tags and cut ends, also called S009-F7.33.24 humanized antibody VH1a + VL1) scFv: EVQLVQSGAEVKKPGASVKVSCKASGYTFTSYWMHWVRQAPGQRLEWMGNVNPSSGGSNYNEKFKNRVTITVDKSASTAYMELSSLRSEDTAVYYCAPHYIGSRPGFAYWGQGTLVTVSSGGGGSGGGGSGGGGSDIVMTQSPDSLAVSLGERATINCKASQNVGTNIAWYQQKPGQSPKALIYSASYRYSGVPDRFSGSGSGTDFTLTISSLQAEDVAVYYCQQYNSYPLTFGGGTKVEIK | 3.04 | 2230 | – | – | – | 2.15 | 1960 | 5.23 | 9380 | – | – | – | – | – | –
5 | F2.39.3-H5 (scFv, not shown: small tags and cut ends, also called S009-F2.39.3 humanized antibody VH2 + VL1) scFv: EVQLVQSGAEVKKPGASVKVSCKASGYTFTNYWMHWVRQAPGQGLEWMGNINPSSGDSYYNERFMSRVTMTVDKSTSTAYMELSSLRSEDTAVYYCARSGGLWLAFWGQGTLVTVSSGGGGSGGGGSGGGGSDIVMTQSPDSLAVSLGERATINCKSSQTLLNSVSQNNYLAWYQQKPGQSPKLLIYFASTRESGVPDRFSGSGSGTDFTLTISSLQAEDVAVYYCQQHYRTPYTFGGGTKVEIK | – | – | – | – | – | – | – | – | – | 5.64 | 22500 | 6.37 | 3140 | 4.65 | 5650
6 | F2.39.3-H6 (scFv, not shown: small tags and cut ends, also called S009-F2.39.3 humanized antibody VH2 + VL2) scFv: EVQLVQSGAEVKKPGASVKVSCKASGYTFTNYWMHWVRQAPGQGLEWMGNINPSSGDSYYNERFMSRVTMTVDKSTSTAYMELSSLRSEDTAVYYCARSGGLWLAFWGQGTLVTVSSGGGGSGGGGSGGGGSDIVMTQSPDSLAVSLGERATINCKSSQTLLNSVSQNNYLAWYQQKPGQSPTLLIYFASTRESGVPDRFSGSGSGTDFTLTISSLQAEDVAVYYCQQHYRTPYTFGGGTKVEIK | – | – | – | – | – | – | – | – | – | 8.9 | 24100 | 40.3 | 4160 | 6.26 | 5780
7 | F2.39.3-H1 (scFv, not shown: small tags and cut ends, also called S009-F2.39.3 humanized antibody VH1 + VL1) scFv: EVQLVQSGAEVKKPGASVKVSCKASGYTFTNYWMHWVRQAPGQGLEWMGNINPSSGDSYYNERFMSRVTMTVDKSTSTVYMELSSLRSEDTAVYYCARSGGLWLAFWGQGTLVTVSSGGGGSGGGGSGGGGSDIVMTQSPDSLAVSLGERATINCKSSQTLLNSVSQNNYLAWYQQKPGQSPKLLIYFASTRESGVPDRFSGSGSGTDFTLTISSLQAEDVAVYYCQQHYRTPYTFGGGTKVEIK | – | – | – | – | – | – | – | – | – | 5.31 | 24400 | 11 | 4000 | 4.91 | 5820

Continued, values first:

Row | EC50 [1] [nM] | Maximum_MFI [1] [MFI] | Kd [2] [nM] | koff [2] [s⁻¹] | kon [2] [M⁻¹ s⁻¹] | EC50 [3] [nM] | Maximum_MFI [3] [MFI] | EC50 [4] [nM] | Maximum_MFI [4] [MFI] | EC50 [5] [nM] | Maximum_MFI [5] [MFI] | EC50 [6] [nM] | Maximum_MFI [6] [MFI] | EC50 [7] [nM] | Maximum_MFI [7] [MFI] | Binder
8 | 2.6 | 2190 | – | – | – | 1.29 | 1470 | 4.08 | 8080 | – | – | – | – | – | – | F7.33.24-H9 (scFv, not shown: small tags and cut ends, also called S009-F7.33.24 humanized antibody VH2 + VL3) scFv: EVQLVQSGAEVKKPGASVKVSCKASGYTFTSYWMHWVRQAPGQGLEWMGNVNPSNGGSNYNEKFKNRVTITVDKSASTAYMELSSLRSEDTAVYYCAPHYIGSRPGFAYWGQGTLVTVSSGGGGSGGGGSGGGGSDIVMTQTPLSLSVTPGQPASISCKASQNVGTNIAWYQQKPGQSPQALIYSASYRYSGVPDRFSGSGSGTDFTLKISRVEAEDVGVYYCQQYNSYPLTFGGGTKVEIK
9 | 1.8 | 2250 | 1.32 | 0.000529 | 402000 | 1.52 | 1400 | 4.6 | 8000 | – | – | – | – | – | – | F7.33.24-H8 (scFv, not shown: small tags and cut ends, also called S009-F7.33.24 humanized antibody VH2 + VL2) scFv: EVQLVQSGAEVKKPGASVKVSCKASGYTFTSYWMHWVRQAPGQGLEWMGNVNPSNGGSNYNEKFKNRVTITVDKSASTAYMELSSLRSEDTAVYYCAPHYIGSRPGFAYWGQGTLVTVSSGGGGSGGGGSGGGGSDIVMTQTPLSLSVTPGQPASISCKASQNVGTNIAWYLQKPGQSPQALIYSASYRYSGVPDRFSGSGSGTDFTLKISRVEAEDVGVYYCQQYNSYPLTFGGGTKVEIK
10 | 0.92 | 2200 | – | – | – | 1.27 | 1330 | 5.07 | 7940 | – | – | – | – | – | – | F7.33.24-H12 (scFv, not shown: small tags and cut ends, also called S009-F7.33.24 humanized antibody VH2a + VL3) scFv: EVQLVQSGAEVKKPGASVKVSCKASGYTFTSYWMHWVRQAPGQGLEWMGNVNPSNAGSNYNEKFKNRVTITVDKSASTAYMELSSLRSEDTAVYYCAPHYIGSRPGFAYWGQGTLVTVSSGGGGSGGGGSGGGGSDIVMTQTPLSLSVTPGQPASISCKASQNVGTNIAWYQQKPGQSPQALIYSASYRYSGVPDRFSGSGSGTDFTLKISRVEAEDVGVYYCQQYNSYPLTFGGGTKVEIK
11 | 1.08 | 2300 | – | – | – | 1.01 | 1540 | 3.54 | 8440 | – | – | – | – | – | – | F7.33.24-H6 (scFv, not shown: small tags and cut ends, also called S009-F7.33.24 humanized antibody VH1a + VL3) scFv: EVQLVQSGAEVKKPGASVKVSCKASGYTFTSYWMHWVRQAPGQRLEWMGNVNPSSGGSNYNEKFKNRVTITVDKSASTAYMELSSLRSEDTAVYYCAPHYIGSRPGFAYWGQGTLVTVSSGGGGSGGGGSGGGGSDIVMTQTPLSLSVTPGQPASISCKASQNVGTNIAWYQQKPGQSPQALIYSASYRYSGVPDRFSGSGSGTDFTLKISRVEAEDVGVYYCQQYNSYPLTFGGGTKVEIK
12 | 2.25 | 2130 | – | – | – | 0.42 | 1590 | 1.46 | 8580 | – | – | – | – | – | – | F7.33.24-H11 (scFv, not shown: small tags and cut ends, also called S009-F7.33.24 humanized antibody VH2a + VL2) scFv: EVQLVQSGAEVKKPGASVKVSCKASGYTFTSYWMHWVRQAPGQGLEWMGNVNPSNAGSNYNEKFKNRVTITVDKSASTAYMELSSLRSEDTAVYYCAPHYIGSRPGFAYWGQGTLVTVSSGGGGSGGGGSGGGGSDIVMTQTPLSLSVTPGQPASISCKASQNVGTNIAWYLQKPGQSPQALIYSASYRYSGVPDRFSGSGSGTDFTLKISRVEAEDVGVYYCQQYNSYPLTFGGGTKVEIK
13 | 2 | 2190 | – | – | – | 1.61 | 1650 | 5 | 8820 | – | – | – | – | – | – | F7.33.24-H7 (scFv, not shown: small tags and cut ends, also called S009-F7.33.24 humanized antibody VH2 + VL1) scFv: EVQLVQSGAEVKKPGASVKVSCKASGYTFTSYWMHWVRQAPGQGLEWMGNVNPSNGGSNYNEKFKNRVTITVDKSASTAYMELSSLRSEDTAVYYCAPHYIGSRPGFAYWGQGTLVTVSSGGGGSGGGGSGGGGSDIVMTQSPDSLAVSLGERATINCKASQNVGTNIAWYQQKPGQSPKALIYSASYRYSGVPDRFSGSGSGTDFTLTISSLQAEDVAVYYCQQYNSYPLTFGGGTKVEIK
14 | 3.04 | 2090 | – | – | – | 1.1 | 1560 | 3.94 | 8620 | – | – | – | – | – | – | F7.33.24-H10 (scFv, not shown: small tags and cut ends, also called S009-F7.33.24 humanized antibody VH2a + VL1) scFv: EVQLVQSGAEVKKPGASVKVSCKASGYTFTSYWMHWVRQAPGQGLEWMGNVNPSNAGSNYNEKFKNRVTITVDKSASTAYMELSSLRSEDTAVYYCAPHYIGSRPGFAYWGQGTLVTVSSGGGGSGGGGSGGGGSDIVMTQSPDSLAVSLGERATINCKASQNVGTNIAWYQQKPGQSPKALIYSASYRYSGVPDRFSGSGSGTDFTLTISSLQAEDVAVYYCQQYNSYPLTFGGGTKVEIK
